Results from paper PMC4433907, “Heterologous expression and characterization of laccase 2 from Coprinopsis cinerea capable of decolourizing different recalcitrant dyes” (Biotechnology, Biotechnological Equipment, 2014).

Experiments:
Assay in all cases: purified protein
purified protein [1] = substrate: COc1cccc(OC)c1O; assay type: biochemical, Coprinopsis cinerea; settings: McIlvaine buffer, 30 °C, 10 min, apparent Km
purified protein [2] = substrate: CCn1c(=NN=c2sc3cc(S(=O)(=O)O)ccc3n2CC)sc2cc(S(=O)(=O)O)ccc21; assay type: biochemical, Coprinopsis cinerea; settings: McIlvaine buffer (pH 2.6 in the standard assay), 30 °C, 10 min, apparent Km
purified protein [3] = substrate: COc1ccccc1O; settings: McIlvaine buffer, 30 °C, 10 min, apparent Km

B1: CcLcc2 (laccase 2) (Coprinopsis cinerea okayama7#130) (protein)
chain: AIGPSTNLVVANKVIAPDGFSRSAVLAGATQPTVQFPGPVIQGNKNSFFAINVIDALTDPTMLRTTSIHWHGMFQRGTAWADGPAGVTQCPISPGHSFLYKFQALNQAGTFWYHSHHESQYCDGLRGAMVVYDPVDPHRNLYDIDNEATIITLADWYHVPAPSAGLVPTPDSTLINGKGRYAGGPTVPLAVISVTRNRRYRFRLVSLSCDPNYVFSIDGHTMTVIEVDGVNVQPLVVDSIQIFAGQRYSFVLNANRPVGNYWVRANPNIGTTGFVGGVNSAILRYVGASNTDPTTTQTPFSNPLLETNLHPLTNPAAPGLPTPGGVDVAINLNTVFDFSSLTFSVNGATFHQPPVPVLLQIMSGAQTAQQLLPSGSVYVLPRNKVIELSMPGGSTGSPHPFHLHGHEFAVVRSAGSSTYNFANPVRRDVVSAGVAGDNVTIRFRTDNPGPWILHCHIDWHLVLGLAVVFAEDAPTVATMDPPPAWDQLCPIYDALPPNT
B1 showed a Km (purified protein [1]) of 1020 µM, a Vmax (purified protein [1]) of 57.5 µmol/min/mg and a kcat (purified protein [1]) of 73 s⁻¹. It also gave a kcat/Km (purified protein [1]) of 71600 M⁻¹ s⁻¹, a Km (purified protein [2]) of 930 µM and a Vmax (purified protein [2]) of 667 µmol/min/mg. It also gave a kcat (purified protein [2]) of 847 s⁻¹, a kcat/Km (purified protein [2]) of 911000 M⁻¹ s⁻¹ and a Km (purified protein [3]) of 28070 µM. For the same protein, the Vmax (purified protein [3]) was 2.46 µmol/min/mg, the kcat (purified protein [3]) was 3.12 s⁻¹ and the kcat/Km (purified protein [3]) was 111 M⁻¹ s⁻¹.
